EP4714976A1 (Sunshine Lake Pharma Co., Ltd., dated 2026)

T1: FGFR4 (acro) (UniProt P22455 22-369)
T1 sequence (looked up): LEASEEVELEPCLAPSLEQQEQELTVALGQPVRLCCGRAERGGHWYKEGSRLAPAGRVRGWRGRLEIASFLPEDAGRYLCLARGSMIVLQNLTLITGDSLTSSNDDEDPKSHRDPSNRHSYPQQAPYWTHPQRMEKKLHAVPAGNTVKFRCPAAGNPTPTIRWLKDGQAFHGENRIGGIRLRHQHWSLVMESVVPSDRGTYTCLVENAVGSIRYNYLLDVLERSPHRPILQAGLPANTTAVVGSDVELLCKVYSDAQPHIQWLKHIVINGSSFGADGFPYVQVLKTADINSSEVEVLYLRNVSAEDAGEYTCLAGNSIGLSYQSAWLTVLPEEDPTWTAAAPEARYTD

B1: 3E2 scFv-Fc (Fc fusion)
chain: EIQLQQSGAELVKPGASVKMSCKASGYTFSFYNMHWVKRTPGQGLEWIGLIYPDNGDTSYNQKFKGKATLTADTSSSTAYMQLSSLTSEDSAVYYCARGGLDYWGQGTSLTVSSGGGGSGGGGSGGGGSNIVMTQSQKFMSTSVGDRVSVTCKASQNVGTNVAWYQQKPGQSPKALIYSASYRYTGVPDRFTGSGSGTDFTFTISSVQAEDLAVYYCQQHYSTPYTFGGGTKLEIKESKYGPPCPPCPAPEAAGGPSVFLFPPKPKDTLMISRTPEVTCVVVDVSQEDPEVQFNWYVDGVEVHNAKTKPREEQFNSTYRVVSVLTVLHQDWLNGKEYKCKVSNKGLPSSIEKTISKAKGQPREPQVYTLPPSQEEMTKNQVSLTCLVKGFYPSDIAVEWESNGQPENNYKTTPPVLDSDGSFFLYSKLTVDKSRWQEGNVFSCSVMHEALHNHYTQKSLSLSLG
notes: scFv-Fc dimer
B2: 1B8 scFv-Fc (Fc fusion)
chain: QIQLQQSGAELVKPGASVKMSCKASGYTFASYNLHWVKQTPGQGLEWIGLIYPENGDTSYNQKFKGKATLTADTSSTTAYIQLSSLTSEDSAVYFCARGGFDYWGQGTSLTVSSGGGGSGGGGSGGGGSDIKMTQSPASLSASVGETVTITCGASENIYGALNWYQRKQGKSPQLLIYGATNLADGMSSRFSGSGSGRQYSLKISSLHPDDVATYYCQNVLSTPYTFGGGTKLEIKESKYGPPCPPCPAPEAAGGPSVFLFPPKPKDTLMISRTPEVTCVVVDVSQEDPEVQFNWYVDGVEVHNAKTKPREEQFNSTYRVVSVLTVLHQDWLNGKEYKCKVSNKGLPSSIEKTISKAKGQPREPQVYTLPPSQEEMTKNQVSLTCLVKGFYPSDIAVEWESNGQPENNYKTTPPVLDSDGSFFLYSKLTVDKSRWQEGNVFSCSVMHEALHNHYTQKSLSLSLG
notes: scFv-Fc dimer

Experiments:
FGFR2b on KATO III cells = target: T2, FGFR2b on KATO III cells (human, UniProt P21802-3 22-822); assay: flow cytometry, KATO III cells
T2 construct: whole, on cells; also called KATO III cells that overexpress FGFR2b
T2 sequence (P21802 other isoform, or with tags, fused parts or gaps): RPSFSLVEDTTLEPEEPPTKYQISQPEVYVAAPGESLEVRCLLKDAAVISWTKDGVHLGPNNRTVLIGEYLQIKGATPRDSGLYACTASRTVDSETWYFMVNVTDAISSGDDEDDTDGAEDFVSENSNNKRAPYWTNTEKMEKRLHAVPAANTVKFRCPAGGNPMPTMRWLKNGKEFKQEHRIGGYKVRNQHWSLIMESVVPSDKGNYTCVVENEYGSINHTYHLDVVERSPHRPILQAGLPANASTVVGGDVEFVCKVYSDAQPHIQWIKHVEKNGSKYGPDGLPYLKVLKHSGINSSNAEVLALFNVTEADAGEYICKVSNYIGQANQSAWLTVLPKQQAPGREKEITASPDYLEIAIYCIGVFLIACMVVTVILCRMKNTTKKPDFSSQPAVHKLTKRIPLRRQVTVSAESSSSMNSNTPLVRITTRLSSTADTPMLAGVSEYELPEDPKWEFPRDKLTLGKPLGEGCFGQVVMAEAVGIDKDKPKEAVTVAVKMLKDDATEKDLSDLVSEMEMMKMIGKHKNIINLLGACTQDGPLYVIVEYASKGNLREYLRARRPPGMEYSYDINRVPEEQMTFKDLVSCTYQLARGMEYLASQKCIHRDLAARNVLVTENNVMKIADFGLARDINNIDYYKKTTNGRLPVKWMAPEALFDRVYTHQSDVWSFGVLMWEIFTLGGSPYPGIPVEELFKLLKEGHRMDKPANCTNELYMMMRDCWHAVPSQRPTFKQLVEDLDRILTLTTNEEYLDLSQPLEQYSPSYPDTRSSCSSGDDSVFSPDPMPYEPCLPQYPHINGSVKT

FGFR2c (acro) [1] = target: T3, FGFR2c (acro) (UniProt P21802 22-377); assay: ELISA
T3 sequence (P21802 22-377): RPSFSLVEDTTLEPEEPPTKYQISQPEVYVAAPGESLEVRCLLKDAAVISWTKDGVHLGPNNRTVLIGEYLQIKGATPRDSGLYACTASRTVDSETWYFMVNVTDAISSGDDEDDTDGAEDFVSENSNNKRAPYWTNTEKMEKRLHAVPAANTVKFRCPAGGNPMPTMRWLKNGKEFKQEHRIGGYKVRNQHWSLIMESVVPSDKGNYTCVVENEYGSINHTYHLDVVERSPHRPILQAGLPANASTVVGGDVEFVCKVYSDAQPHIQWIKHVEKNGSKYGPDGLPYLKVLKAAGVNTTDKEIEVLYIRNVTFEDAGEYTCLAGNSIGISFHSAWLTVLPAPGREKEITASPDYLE

FGFR4 (acro) [2] = target: T1, FGFR4 (acro); assay: ELISA
FGFR2c (acro) [3] = target: T3, FGFR2c (acro); assay: ELISA, antibody 10 µg/mL
FGFR4 (acro) [4] = target: T1, FGFR4 (acro); assay: ELISA, antibody 10 µg/mL
[5] = target: T4, recombinant cynomolgus monkey FGFR2b (cynomolgus monkey); assay: ELISA, antibody 1ug/mL
T4 construct: extracellular domain; bought; also called cynomolgus macaque FGFR2b

[6] = target: T5, human FGFR2b (Kaixia Biotechnology, catalog number FGR-HM1BB) (human, UniProt P21802-3 22-378); assay: BLI, antibody on AHC2 sensor
T5 construct: extracellular domain; bought; also called hFGFR2b; human FGFR2b protein
T5 sequence (P21802 other isoform, or with tags, fused parts or gaps): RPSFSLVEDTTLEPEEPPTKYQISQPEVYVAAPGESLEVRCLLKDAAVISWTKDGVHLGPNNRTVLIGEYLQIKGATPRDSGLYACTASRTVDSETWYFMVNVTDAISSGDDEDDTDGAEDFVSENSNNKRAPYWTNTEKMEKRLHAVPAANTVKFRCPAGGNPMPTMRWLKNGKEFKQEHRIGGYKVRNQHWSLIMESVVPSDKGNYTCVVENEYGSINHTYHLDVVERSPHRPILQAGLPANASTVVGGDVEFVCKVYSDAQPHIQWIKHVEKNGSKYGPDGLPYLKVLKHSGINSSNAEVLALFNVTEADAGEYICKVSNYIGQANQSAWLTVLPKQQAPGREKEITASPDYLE

[7] = target: T5, human FGFR2b (Kaixia Biotechnology, …); assay: ELISA, FGFR2b coated at 1 µg/ml

Binder | EC50 (FGFR2b on KATO III cells) | binding result (FGFR2c (acro) [1]) | binding result (FGFR4 (acro) [2]) | OD (450 nm) value (FGFR2c (acro) [3]) | OD (450 nm) value (FGFR4 (acro) [4]) | OD (450 nm) value [5] | Kd [6] | koff [6] | kon [6] | EC50 [7]
B1 | 0.236 µg/mL | no binding (tested: 10 µg/mL) | no binding (tested: 10 µg/mL) | 0.138 | 0.149 | 3.35 | 4.45 nM | 0.0011 s⁻¹ | 247000 M⁻¹ s⁻¹ | 0.0235 µg/mL
B2 | 0.133 µg/mL | no binding (tested: 10 µg/mL) | no binding (tested: 10 µg/mL) | 0.076 | 0.171 | 3.25 | 13.3 nM | 0.00629 s⁻¹ | 472000 M⁻¹ s⁻¹ | 0.0273 µg/mL
